Data: US20170088624A1 (Janssen / Centocor, published 2017)

T1: cyno CD40 (SPR analyte) (Macaca fascicularis (cynomolgus), UniProt P25942 21-193 (human entry), limits assumed)
T1 construct: also called cCD40-ECD
T1 chain: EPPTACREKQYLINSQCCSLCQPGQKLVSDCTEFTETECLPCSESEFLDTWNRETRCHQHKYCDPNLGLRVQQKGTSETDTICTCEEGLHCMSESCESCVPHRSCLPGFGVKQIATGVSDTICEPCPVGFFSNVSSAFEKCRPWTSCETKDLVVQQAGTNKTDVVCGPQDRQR

T2: Macaca fascicularis (cyno) CD40 (cCD40) on cells (Macaca fascicularis (cynomolgus), UniProt P25942 21-277 (human entry))
T2 construct: CD40 on cyno mature DCs
T2 chain: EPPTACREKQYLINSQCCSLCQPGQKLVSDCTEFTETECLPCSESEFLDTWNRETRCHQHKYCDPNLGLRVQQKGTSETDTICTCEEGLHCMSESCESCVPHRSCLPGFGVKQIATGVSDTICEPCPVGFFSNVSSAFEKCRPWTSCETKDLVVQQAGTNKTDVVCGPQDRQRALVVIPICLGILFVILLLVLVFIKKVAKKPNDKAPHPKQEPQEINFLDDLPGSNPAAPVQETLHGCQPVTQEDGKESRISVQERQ


Key:
cyno CD40 (SPR analyte) [1] = target: T1, cyno CD40 (SPR analyte); assay: SPR ProteOn XPR36, mAb captured by anti-human IgG Fc, cyno CD40 as analyte, 25 C
Description: (§1) Affinity measurements were performed using Surface Plasmon Resonance (SPR) using a ProteOn XPR36 system (BioRad). […] Approximately 5000 RU (response units) of mAbs were immobilized. The kinetic experiments were performed at 25° C. in running buffer (DPBS+0.01% P20+100 μg/ml BSA). To perform kinetic experiments, 200 RU of mAbs were captured followed by injections of analytes (human or cyno CD40) at 5 concentrations (in a 4-fold serial dilution). The association phase was monitored for 3 minutes at 50 μL/min, then followed by 15 minutes of buffer flow (dissociation phase). The chip surface was regenerated with two 18 second pulses of 100 mM H₃PO₄ (Sigma, Cat#7961) at 100 μL/min.
(§2) The collected data were processed using ProteOn Manager software. First, the data was corrected for background using inter-spots. Then, double reference subtraction of the data was performed by using the buffer injection for analyte injections. The kinetic analysis of the data was performed using a Langmuir 1:1 binding model. The result for each mAb was reported in the format of Ka (On-rate), Kd (Off-rate) and KD (equilibrium dissociation constant).

[2] = target: T3, Full length human CD40 (huCD40) on cells (human, UniProt P25942 21-277); assay: flow cytometry, HEK-Blue CD40L cells
T3 construct: CD40 on human mature DCs, human B cells, Raji cells and HEK-Blue CD40L cells (stably expressing human CD40); also called TNFRSF5

[3] = target: T3, Full length human CD40 (huCD40) on cells; assay: cell-based or functional assay
[4] = target: T2, Macaca fascicularis (cyno) CD40 (cCD40) …; assay: flow cytometry, cyno mature DCs
Description: (§3) Human monocytes were isolated from either frozen/fresh PBMC using CD14 negative isolation kit per manufacturer's protocol (MACS Miltenyi). Cyno monocytes were isolated from fresh PBMC using CD14 positive isolation kit per manufacturer's protocol (MACS Miltenyi). To generate DCs, monocytes were cultured for 5 days in complete media RPMI (Invitrogen) in the presence of 100 ng/ml human GM-CSF and human IL-4 (Peprotech) and media was replenished every 2 days. On day 5, DCs were stimulated with 100 ng/ml LPS (Sigma) for 24 hours. Cells were then stained with each of the tested CD40 antibody at different concentration in flow cytometry buffer (PBS+1% FBS; BD Bioscience) in 100 μl volume for 30 minutes on ice followed with two washes with flow buffer. Cells were then stained for additional 30 minutes on ice with APC-conjugated anti human IgG (Jackson ImmunoResearch) at the recommended dilution 1:100 and washed twice with flow buffer. Cells were analyzed for percent positive and Mean Fluorescence Intensity (MFI) to determine the antibody binding using Fortessa (BD Bioscience).
(§4) The experiments were conducted using assays described above. 20 antibodies were characterized further based on their binding to human DCs, cyno DCs, Raji cells and HEK-Blue™ CD40L cells.

[5] = target: T3, Full length human CD40 (huCD40) on cells; assay: flow cytometry, Raji cells
[6] = target: T3, Full length human CD40 (huCD40) on cells; assay: flow cytometry, human mature DCs
Description: as §3, §4

[7] = target: T3, Full length human CD40 (huCD40) on cells; assay: cell-based or functional assay; remark: listed apart in the source
human CD40 (SPR analyte) = target: T4, human CD40 (SPR analyte) (human, UniProt P25942 21-193); assay: SPR ProteOn XPR36, mAb captured by anti-human IgG Fc, CD40 as analyte, 25 C
T4 construct: also called huCD40-ECD
Description: as §1, §2
(§5) The parameters reported in this table were obtained from a 1:1 Langmuir binding model for all samples. Affinity, KD=kd/ka.

cyno CD40 (SPR analyte) [8] = target: T1, cyno CD40 (SPR analyte); assay: SPR ProteOn XPR36, mAb captured, cyno CD40 as analyte, 25 C; did not fit well to 1:1 model
Description: as §1, §2, §5

Binder | Kd (cyno CD40 (SPR analyte) [1]) [nM] | koff (cyno CD40 (SPR analyte) [1]) [s⁻¹] | kon (cyno CD40 (SPR analyte) [1]) [M⁻¹ s⁻¹] | EC50 [2] [ng/mL] | DC EC50, CD80 surface expression, with cross-linker [3] [ng/mL] | DC EC50, CD83 surface expression, with cross-linker [3] [ng/mL] | DC EC50, CD86 surface expression, with cross-linker [3] [ng/mL] | DC EC50, HLA-DR surface expression, with cross-linker [3] [ng/mL] | EC50 [4] [ng/mL] | EC50 [5] [ng/mL] | EC50 [6] [ng/mL] | B cells EC50, CD23 surface expression, with cross-linker [7] [ng/mL] | B cells EC50, CD80 surface expression, with cross-linker [7] [ng/mL] | B cells EC50, CD83 surface expression, with cross-linker [7] [ng/mL] | B cells EC50, CD86 surface expression, with cross-linker [7] [ng/mL] | B cells EC50, HLA-DR surface expression, with cross-linker [7] [ng/mL] | Kd (human CD40 (SPR analyte)) [nM] | koff (human CD40 (SPR analyte)) [s⁻¹] | kon (human CD40 (SPR analyte)) [M⁻¹ s⁻¹] | other results
C40M59 (antibody, human IgG1, kappa, V domains shown, Full-length IgG1/kappa; from phage display) VH: QVQLVQSGAEVKKPGSSVKVSCKASGGTFSSYWISWVRQAPGQGLEWMGYIIPISGTARYAQKFQGRVTITADESTSTAYMELSSLRSEDTAVYYCAREPGYSSGLSVDYFDYWGQGTLVTVSS VL: not shown | 6.92 | 0.000995 | 144000 | 354 | 0.342 | 276 | 9.79 | 53.6 | 74 | 125 | 826 | 1240 | 10.6 | 10.8 | 15.4 | 4.84 | 9 | 0.00106 | 118000 | 
C40M12 (antibody, human IgG1, lambda, V domains shown, Full-length IgG1/lambda; from OmniRat (OMT)) VH: EVQLVESGGGLVQPGGSLRLSCAASGFTFGSYAMSWVRQAPGKGLEWVSVISDSGGRTYYADSVKGRFTISRDYSKNTLYLQMNSLRAEDTAVYYCAKEGGDYYYYGMDVWGQGTTVTVSS VL: SYELTQPPSVSVSPGQTASIICSGDKLGDKYVCWYQQKPGQSPVVVIYHDNKRPSGIPERFSGSNSGNTATLTISGTQAMDEADYYCQVWDSSTVVFGGGTKLTVLG | 0.243 | 0.000441 | 1.81e+06 | 112 | 0.00393 | 332 | 502 | 301 | 47.4 | 29.9 | 298 | 125000 | 6.23 | 2.84 | 2.28 | 4.27 | 0.136 | 0.000176 | 1.3e+06 | 
C40M17 (antibody, human IgG1, lambda, V domains shown, Full-length IgG1/lambda; from OmniRat (OMT)) VH: EVQLVESGGGLVQPGGSLRLSCAASGFTFSSYAMSWVRQAPGRGLEWVSTINNSGGGTYYADSVKGRFTISRDNSKNTLYLHMNSLRAEDTAVYYCAKEGGKYYYYAMDVWGQGTTVTVSS VL: not shown | 0.0368 | 0.000157 | 4.27e+06 | 75.1 | 36 | 306 | 33 |  | 53.7 | 73.9 | 127 | 1.95 | 0.879 | 0.838 | 4.57 | 1.57 | 0.0294 | 8.06e-05 | 2.74e+06 | 
C40M63 (antibody, human IgG1, kappa, V domains shown, Full-length IgG1/kappa; from phage display) VH: QVQLVQSGAEVKKPGSSVKVSCKASGGTFSSYAISWVRQAPGQGLEWMGGIIPIFGTANYAQKFQGRVTITADESTSTAYMELSSLRSEDTAVYYCARVGHPAWWRDSLDYWGQGTLVTVSS VL: not shown |  |  |  | 84.9 | 70.5 | 0.962 | 258 | 154 | 30.9 | 39.6 | 99.6 | 6.94 | 0.0167 | 0.581 | 1.26 | 0.00966 | 1.21 | 0.000641 | 528000 | Kd (cyno CD40 (SPR analyte) [8]): 0.412 nM; koff (cyno CD40 (SPR analyte) [8]): 0.000307 s⁻¹; kon (cyno CD40 (SPR analyte) [8]): 746000 M⁻¹ s⁻¹
C40M66 (antibody, human IgG1, kappa, V domains shown, Full-length IgG1/kappa; from phage display) VH: QVQLVQSGAEVKKPGSSVKVSCKASGGTFSSYAISWVRQAPGQGLEWMGGIIPIFGTANYAQKFQGRVTITADESTSTAYMELSSLRSEDTAVYYCARVRYSAWYRDSLDYWGQGTLVTVSS VL: not shown | 1.64 | 0.000577 | 352000 | 169 | 158 | 175 | 423 | 39.4 | 48.3 | 73 | 202 | 41.4 | 5.11 | 1.82 | 2.46 | 1.08 | 3.05 | 0.00116 | 378000 | 
C40M67 (antibody, human IgG1, kappa, V domains shown, Full-length IgG1/kappa; from phage display) VH: EVQLLESGGGLVQPGGSLRLSCAASGFTFSDYAMNWVRQAPGKGLEWVSGIKSGGSSKYYADSVKGRFTISRDNSKNTLYLQMNSLRAEDTAVYYCAKHVDFYRALDYWGQGTLVTVSS VL: EIVLTQSPGTLSLSPGERATLSCRASQSVKNSSLAWYQQKPGQAPRLLIYTASSRATGIPDRFSGSGSGTDFTLTISRLEPEDFAVYYCQQSSAPPWTFGQGTKVEIKR | 1.85 | 0.000341 | 184000 | 550 | 49.9 | 127 | 202 | 50.7 | 327 | 247 | 766 | 4.17 | 3.32 | 1.46 | 2.26 | 0.792 | 1.91 | 0.00031 | 163000 | 
